Assay results published in the supplement of paper PMC12764529.
± gives the half width of the 95% confidence interval.

Assays:
[1] = folding stability dG unfold from trypsin proteolysis; higher = more stable
Summary of the method: (§1)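 Sequencing followed digestion of designed mini-proteins with trypsin and chymotrypsin, each at 11 concentrations in threefold dilutions together with a no-protease condition. The mini-proteins were under 80 residues, had no cysteine, sat in a PA-tagged cDNA display construct, and were kept only if AlphaFold2 dimer inter-PAE was above 15. From the counts, Bayesian fitting gave K50, and unfolding free energy was derived against a sequence-predicted unfolded-state K50 and a shared folded-state K50, per protease or combined.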

[2] = folding stability dG unfold from chymotrypsin proteolysis; higher = more stable
Summary of the method: as §1

[3] = folding stability dG unfold (combined trypsin and chymotrypsin); higher = more stable
Summary of the method: as §1

Sequence | folding stability dG unfold [1] [kcal/mol] | folding stability dG unfold [2] [kcal/mol] | folding stability dG unfold [3] [kcal/mol]
SAGMTLIIRVKVYNKDGELVEEREIEVPNMSVEEIAEALKKLPNVEKVKIEVFNADGEKKEIEIEVKPSAGG [r19_269_TrROS_Hall] | 3.08 ± 0.13 | 4.43 ± 0.064 | 4.1 ± 0.09
SAGKKKKYKIKIKIEISEDGTIKITIEIFDKNGKLVKKIEITIKLPKVKLSEEELKEAAKKGDLEKALKSAG [r5_944_TrROS_Hall] | 2.23 ± 0.28 | 3.6 ± 0.28 | 2.95 ± 0.7
SAGGSAGGSPDLPELNIEPVSTLPDGSKIYRADVSPEAIARLKAANPAVTVEEHPDFLLLFLRESAGGSAGG [r6_395_JUSTAS] | 0.475 ± 0.059 | 0.666 ± 0.058 | 0.565 ± 0.04
SAGGEKEYVEVTLEIEIEIELEPGESAEEIARKLAEELGAEITEVRVERLPDGTVKITVTVRVKLPPSAGGS [r8_292_TrROS_Hall] | 3.3 ± 0.29 | 2.58 ± 0.2 | 2.98 ± 0.35
SKKKKKKTIKIKITIKVEKEVKIRIIYNGKEKEITIKPGETKTIEITFPAGKVIIEIYKDGKPIKKIEIKSA [r9_411_TrROS_Hall] | 2.94 ± 0.092 | 3 ± 0.051 | 2.95 ± 0.1
DYKIKIPVARFPDGYWYIRAEIEDPDGETHEYEYPIPMPPGDTFDIDLPEDEPYKIKKIWIYHNGKPQPITS [r1_70_TrROS] | 0.922 ± 0.11 | 1.36 ± 0.15 | 1.16 ± 0.16
SAGGMVIVIKTPGGASELEIGDLTITTNPDTGLRVAEATPEQIEELLKADALKDIEEIEVLPIEELLSAGGS [r8_493_TrMRF] | 0.406 ± 0.047 | -0.0529 ± 0.038 | 0.243 ± 0.11
SAGGSAGGSAGGSRMRLEITVRDENGLLVRLEVEFEEKDGELEMKVRAEVFPLPEEEEESAGGSAGGSAGGS [r4_168_TrROS_Hall] | 0.939 ± 0.04 | 2.71 ± 0.059 | 2.44 ± 0.1
SAGGSAGGSAGKKLKPFKVVEVKEPVKEGDVIEVENEATGELYRFTVVNGEIKIEKVKLDSAGGSAGGSAGG [r11_94_TrROS_Hall] | 0.225 ± 0.053 | 0.442 ± 0.21 | 0.365 ± 0.29
SMKIEIIERNEDGEYVLVRITFEDGEEITIVAKTEEEAKEAAKEIAKELFPDVKIKKIEVVPLEDLPEELSA [r9_137_TrROS_Hall] | 1.62 ± 0.14 | 0.251 ± 0.37 | 1 ± 0.31
SAGGSAGGDPGDDYKIGVFPFTFLFGGYRISIPIFRITKDGKPQHIFMAIEIEPLPPPKDPGDNSAGGSAGG [r6_684_TrROS] | 3.21 ± 0.093 | 4 ± 0.087 | 3.71 ± 0.15
SAGGSAGGSAGGAPEVKRVLVLVEVEVKPGDTIELPEGARVIWDPKTRRLYVLVEVELRPSAGGSAGGSAGG [r7_584_TrROS_Hall] | 2.73 ± 0.12 | 3.77 ± 0.057 | 3.38 ± 0.13
SAGDEALLERIRARAEAEAKAAGPDPTPLDYRVEVEPVEIDEETGTVKVRVTITAPDREVEREVTVPLVSAG [r5_53_JUSTAS] | 0.315 ± 0.051 | -0.113 ± 0.096 | 0.0838 ± 0.088
SAGMNLSPEEIAERIREEAKKKYPNSEVEVRIVSQPPTTIVLEVKITIYFPEEGGSIIEEPRVITIDRLSAG [r14_187_JUSTAS] | 2.05 ± 0.076 | 2.17 ± 0.13 | 2.15 ± 0.13
SAGGSAGGSAGGSITITWNPESGTVKIKPPNNKKEIEIPAENMTPSQIIDQAKDNGVEVSAGGSAGGSAGGS [r4_49_TrROS] | -0.0527 ± 0.12 | 1.39 ± 0.1 | 0.935 ± 0.17
SAGAMQTVTLPTPDGRTVTLRHPGISVSVDPEKRTVTISVPSLGKVYTLTFAPDGTVAELSEEPIPELESAG [r5_342_JUSTAS] | 1.53 ± 0.03 | 3.231 ± 0.025 | 2.82 ± 0.11
SAGGSAGGSMKYYKTKDGKIVKAPPIETVKLKLKLEINGKKIEIEIEMSKEEIDKLLKELEKKSAGGSAGGS [r20_148_TrROS_Hall] | 0.717 ± 0.051 | 1.27 ± 0.17 | 1.05 ± 0.13
SAGTIWIPVDELKELGIPPGDTAEEFKQQISDRLMEQGWTVKIPDIEVEPLDPNDGRVWVRINIEFKPPSAG [r5_23_TrROS] | 1.26 ± 0.05 | 0.42 ± 0.2 | 0.94 ± 0.17
SAGGSAGGSAGGWDEIKDILREAGWPVKNVEVQWIPNPENGKPMNSITVSYPDGKKWTIMSAGGSAGGSAGG [r7_337_TrROS] | -0.195 ± 0.13 | 0.0542 ± 0.19 | 0.0642 ± 0.098
SAGGSAGGPIDLDDIKIEEIEHERNPNGMMYHEVTIRFPGGKIPVWFHPNMSLDNAVDMLRAFISAGGSAGG [r6_233_TrROS] | 1.4 ± 0.092 | 0.814 ± 0.11 | 1.19 ± 0.11
LEIIEKLKFPGYKITSVSIQRTNNKVTIVIHFRHPKEYYMISLEIDPPNGGIKITEVHPIKPGESMDDMMNS [r1_383_TrROS] | 3.09 ± 0.15 | 3.75 ± 0.088 | 3.43 ± 0.33

Sequence | folding stability dG unfold [1] [kcal/mol] | folding stability dG unfold [2] [kcal/mol] | folding stability dG unfold [3] [kcal/mol]
SGPGEEEVAKRAAAEAAPTPDVREVTEEVEIVVPGTGEKVVVPVTALRLPDGTIVPLPEEEIRAIAEKLLSA [r9_1056_JUSTAS] | 0.341 ± 0.098 | 1.07 ± 0.058 | 0.771 ± 0.13
SAGAGKTPDGKEYIIPFTFKNENGETTPEEIEEKIKEFTAKHPEVKIKEIKAIKEGDSVKVLVVVEKPASAG [r5_688_TrMRF] | 2.61 ± 0.12 | 2.77 ± 0.053 | 2.74 ± 0.28
SSSVVESSYDPSTGTLTVTVSYDFPPAPPAAATSSTTPVGSNSYTGSGSYTSPAGASSLSSTATGPPTLSSA [r9_780_JUSTAS] | 1.43 ± 0.031 | 1.15 ± 0.054 | 1.37 ± 0.048
SMNIISIDIEPYRTGGEPWIYIPIQVPDENMPPSELEEIVEEIFEKLGLPINVKVHRDPNSGTIWIMIRLSA [r9_717_TrROS] | 2.72 ± 0.15 | 2.79 ± 0.13 | 2.75 ± 0.27
SAGGSAGGSAGGSMVIRNENGYLIEVKTEVVVDEETKKKYVKTEIRIYKEGEEKELPEESAGGSAGGSAGGS [r4_48_TrROS_Hall] | 0.369 ± 0.055 | 1.13 ± 0.1 | 1 ± 0.22
SAKEPVYLVRIRVEIYKDGKPVKELEIEVEVEEGETLEEVLERLREELEKKGYKIVKVEIEVRKLPPPESAG [r14_979_TrROS_Hall] | 3.35 ± 0.13 | 5.04 ± 0.15 | 4.72 ± 0.19
SAGGASTVEYEITLPLDPSGSVDPDTIRAAAEAIAAADPDFVDHRIEEITITRLPDGTVRFTVTISVPSAGG [r13_462_JUSTAS] | 2.66 ± 0.11 | 2.46 ± 0.049 | 2.53 ± 0.092
SKIKIEEVPEGEEVEIEIPETKKTITIVKKDDYLIIKVKDKKTGEEKEIVIKVPPENIEEVLKKIEELLKSA [r9_982_TrROS_Hall] | 2.01 ± 0.1 | 2.34 ± 0.25 | 2.11 ± 0.4
SAGGSAGGSAGPITVPPGAVLLSVEEEGERTRVTVRLPGSGVVETYTFEPGEPVVVELPGSAGGSAGGSAGG [r11_774_JUSTAS] | 2.27 ± 0.053 | 2.941 ± 0.016 | 2.75 ± 0.043
SAGMMLIEVEKNGEPVEVAEVKDDEITITLPKEKVRIRIVNADTGEEVEAEATVEDGTITIKLPPGVKLSAG [r5_469_TrROS_Hall] | 0.669 ± 0.077 | -0.794 ± 0.45 | 0.232 ± 0.19
SAGGGMTFNFTAPDGTPYEDVTTTPLPDGSTLVTVTQEDPKNPGVVTVTLIRLPSGADALEVTSGPVVSAGG [r13_370_JUSTAS] | 0.972 ± 0.07 | 0.803 ± 0.087 | 0.944 ± 0.095
SAMRIEIVRDPETGELVVRVVLPREEAEEAAEELARRLAEAGLEVEVKVVRIEETDGETRVVVEIKVKPSAG [r14_345_TrROS_Hall] | 3.74 ± 0.11 | 2.88 ± 0.061 | 3.3 ± 0.1
SAGMKTYTITVPASEAEEAAEKAAEEIKKELGLPDSDTVEVTVTSYDPKTGTVTITITVTRPLPGGLSLSAG [r5_537_JUSTAS] | 2.74 ± 0.13 | 1.76 ± 0.084 | 2.19 ± 0.2
SAGGSIEELAREKALEEHKKTGEKNYPFTFEFEIVSSYEFAPDGTPVASSEFPFKITLKFKLPPKKKSAGGS [r16_156_JUSTAS] | 1.44 ± 0.024 | 2.88 ± 0.069 | 2.43 ± 0.12
SAMKFKKGAKIEIEVEKVEEKEIDGKTVAVYRMKIKIEVDGKKYEIEVEIYYDKETKEWKIVKVEIKEVSAG [r14_293_TrROS_Hall] | 3.55 ± 0.33 | 3.13 ± 0.046 | 3.33 ± 0.19
SAGGSAGGSAGKDKGQKEVPEINIRIEPVNFHWEYDKGNGKPKSIHFMFKIRYPNGREITSAGGSAGGSAGG [r11_890_TrROS] | 1.24 ± 0.1 | 0.674 ± 0.29 | 1.15 ± 0.28
SAGGSAGGSAMTFKSPEEAKKAAEELEKKTGYKIKITKIEVNEDGEKTVKIEILPPGEKLKSAGGSAGGSAG [r3_59_TrROS_Hall] | -0.238 ± 0.092 | 0.544 ± 0.12 | 0.284 ± 0.1
SAGGHTIMFPVKSPEQARDEIRDFARDQGLPIEPEDITIEQHEFKDPENGKKYRFFEITIDVTLKPPSAGGS [r16_587_TrROS] | 0.0514 ± 0.056 | 1.49 ± 0.11 | 1.02 ± 0.15
SAGPYYVRITVSIYYPGNGAPHQHTIPIKGKTLDDIKDEIRDEIRDHGMKMDPGDEVEIQITDIEVYPGSAG [r5_230_TrROS] | 0.905 ± 0.019 | 1.55 ± 0.06 | 1.28 ± 0.075
SAGGMSVTVSTHLSPEELRELVREIVEKNPGLEVKAVEVTDPATGEWRAVPLDEVPADRPVTVRVDLSRSAG [r5_357_JUSTAS] | 0.506 ± 0.091 | 0.388 ± 0.12 | 0.495 ± 0.12
